# Primed or numbered codes have the meaning given here. The star is where a group is joined. Dabcyl′ = 4-((4-(dimethylamino)phenyl)azo)benzoyl, CN(C)c1ccc(/N=N/c2ccc(C(=O)*)cc2)cc1
# How the values were obtained:
# ERK2 = molecular target: T1, ERK2 (UniProt P28482 1-360); test: fluorescence polarisation; competitive: complex of the MAPK with 50 nM Cf-RHDF at 60-80% complex formation titrated with increasing unlabeled peptide; 20 mM Tris pH 8.0, 100 mM NaCl, 0.05% Brij35, 2 mM TCEP; 384-well black plates; triplicates; constants are called Kd in Table 1 and Ki in the methods; conditions: both partners purified
# T1 construct: The in vitro activity assay used active, phosphorylated pp-ERK2 (1 nM); also called extracellular signal-regulated kinase 2; MAPK; source: recombinantly expressed in Escherichia coli, purified according to Garai et al
# p38α = molecular target: T2, p38α (UniProt Q16539 1-360); test: as above; conditions: both partners purified
# T2 construct: The in vitro activity assay used active, phosphorylated pp-p38α (1 nM); source: recombinantly expressed in Escherichia coli, purified according to Garai et al
# T2 sequence (Q16539 whole entry): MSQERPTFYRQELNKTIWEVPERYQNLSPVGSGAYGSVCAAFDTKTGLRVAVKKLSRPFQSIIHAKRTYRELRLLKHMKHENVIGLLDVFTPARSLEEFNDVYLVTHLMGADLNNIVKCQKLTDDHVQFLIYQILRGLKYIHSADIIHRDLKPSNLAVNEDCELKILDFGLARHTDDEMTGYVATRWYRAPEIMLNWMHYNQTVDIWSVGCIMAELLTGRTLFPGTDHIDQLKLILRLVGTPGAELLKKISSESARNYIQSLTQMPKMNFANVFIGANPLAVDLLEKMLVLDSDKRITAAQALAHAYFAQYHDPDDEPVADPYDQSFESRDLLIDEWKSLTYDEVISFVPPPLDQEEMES
# T1 sequence (P28482 whole entry): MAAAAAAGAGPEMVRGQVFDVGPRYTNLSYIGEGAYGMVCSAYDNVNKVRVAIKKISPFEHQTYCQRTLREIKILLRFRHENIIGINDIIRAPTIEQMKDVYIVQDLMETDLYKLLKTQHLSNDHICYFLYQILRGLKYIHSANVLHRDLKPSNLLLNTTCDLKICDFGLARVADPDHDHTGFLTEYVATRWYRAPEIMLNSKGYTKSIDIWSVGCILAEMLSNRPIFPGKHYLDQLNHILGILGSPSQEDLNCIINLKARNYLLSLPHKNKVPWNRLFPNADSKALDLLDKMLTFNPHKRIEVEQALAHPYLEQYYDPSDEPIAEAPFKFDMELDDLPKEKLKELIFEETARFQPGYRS
Binder,Kd (ERK2),Kd (p38α)
"H-RRRPPWLRLDIRR-NH2 (peptide 6 with one more Arg at the N-terminus; source: synthetic peptide (Fmoc/tBu solid phase on Rink-amide MBHA resin, RP-HPLC purified)) [H-RRRPPWLRLDIRR-NH2 (peptide 8)]",1.3 µM,1.4 µM
"H-RRPPWLRLDI-NH2 (source: synthetic peptide (Fmoc/tBu solid phase on Rink-amide MBHA resin, RP-HPLC purified)) [H-RRPPWLRLDI-NH2 (peptide 5)]",19.5 µM,10 µM
"H-RRPPWLRLDIRR-NH2 (peptide 5 extended at the C-terminus by two Arg; source: synthetic peptide (Fmoc/tBu solid phase on Rink-amide MBHA resin, RP-HPLC purified)) [H-RRPPWLRLDIRR-NH2 (peptide 6)]",5.2 µM,

# Further lines, results first:
Kd (ERK2),Kd (p38α),Binder
15 µM,,"H-KKPPWLKLDI-NH2 (RHDF1 docking motif without the flanking regions SLQR (N-terminus) and PS (C-terminus); also called short peptide; truncated construct; source: synthetic peptide (Fmoc/tBu solid phase on Rink-amide MBHA resin, RP-HPLC purified)) [H-KKPPWLKLDI-NH2 (peptide 4)]"
1.8 µM,1.1 µM,"H-SLQRKKPPWLKLDIPSC-NH2 (C-terminal cysteine that follows the 16 residues of the motif in the printed peptide; not part of the motif as printed in the text; The added Cys probably serves for conjugation (cysteine containing peptides were joined to chloroacetylated peptides); also called original peptide; source: synthetic peptide (Fmoc/tBu solid phase on Rink-amide MBHA resin, RP-HPLC purified)) [H-SLQRKKPPWLKLDIPSC-NH2 (peptide 1, RHDF1 linear binding motif)]"
4.6 µM,1 µM,"{Dabcyl′}-RRRPPWLRLDIRRK-NH2 (SMILES CC[C@H](C)[C@H](NC(=O)[C@H](CC(=O)O)NC(=O)[C@H](CC(C)C)NC(=O)[C@H](CCCNC(=N)N)NC(=O)[C@H](CC(C)C)NC(=O)[C@H](Cc1c[nH]c2ccccc12)NC(=O)[C@@H]1CCCN1C(=O)[C@@H]1CCCN1C(=O)[C@H](CCCNC(=N)N)NC(=O)[C@H](CCCNC(=N)N)NC(=O)[C@H](CCCNC(=N)N)NC(=O)c1ccc(/N=N/c2ccc(N(C)C)cc2)cc1)C(=O)N[C@@H](CCCNC(=N)N)C(=O)N[C@@H](CCCNC(=N)N)C(=O)N[C@@H](CCCCN)C(N)=O, peptide 8 with a Lys at the C-terminus and a Dabcyl group on the N-terminus; also called Dabcyl-containing peptide (unlabelled); source: synthetic peptide (Fmoc/tBu solid phase on Rink-amide MBHA resin, RP-HPLC purified)) [Dabcyl-RRRPPWLRLDIRRK-NH2 (peptide 10)]"

# — publication PMC8281026, “Peptide Based Inhibitors of Protein Binding to the Mitogen-Activated Protein Kinase Docking Groove” (Frontiers in Molecular Biosciences, 2021)
